US9879094B2, “Nucleic acid molecules encoding for BACE1 antibodies” (Genentech, Inc., priority 2010, dated 2018)

Assays:
[1] = system: Aβ1-40 and Aβ1-42 in hAPP transgenic mice; assay: hAPP transgenic mice, systemic (IP) dosing, Aβ levels; format: in vivo, mouse; conditions: 100 mg/kg IP, 3 doses Q4D
Protocol: Briefly, 5-month old human APP-expressing mice were treated with 30 mg/kg or 100 mg/kg YW412.8.31 antibody or vehicle by intra-peritoneal injection every four days for a total of three doses (i.e., at days 1, 5, and 9). Animals were euthanized two hours post the final dose. Serum, plasma, and brains were harvested and processed. Plasma, cortex and hippocampus were analyzed for levels of soluble Aβ1-40 and Aβ1-42 using an Amyloid beta (Aβ) ELISA test kit per manufacture's instructions (The Genetics Company). Pharmacokinetic analysis was performed on serum and brain homogenates.

[2] = system: E13.5 dorsal root ganglia neurons; assay: Aβ40 production in DRG neurons; format: cell-based, mouse; conditions: highest concentrations
Protocol: Similar studies were also performed in dorsal root ganglia, cortical neurons and hippocampal neurons isolated from mice. Briefly, dissociated neuronal cultures were prepared from E13.5 dorsal root ganglia (DRG), E16.5 cortical neurons and E16.5 hippocampal neurons. Neurons were grown for five days in vitro. Fresh media containing YW412.8.31 anti-BACE antibody or control IgG1 was incubated with the neurons for 24 hours. Media was harvested and assayed for the presence of Aβ40 using the MSD® Rodent/Human (4G8) A1340 Ultrasensitive kit according to the Manufacturer's instructions. Aβ40 values were normalized for cell viability, as determined using the CellTiter-Glo Luminescent Cell Viability Assay (Promega). The experiment was performed at least three times, and each point was repeated in duplicate. Data was plotted using a four-parameter non-linear regression curve-fitting program (Kaleidagraph, Synergy Software).

BACE1 = BACE1 (Homo sapiens, UniProt P56817); assay: HTRF BACE1 enzyme activity assay (long peptide Bi27); format: biochemical; conditions: IgG, long peptide substrate
Protocol: The HTRF assay was performed as follows. […] The proteolytic reaction mixture was incubated at ambient temperature for 75 minutes and was quenched by the addition of 5 μL HTRF detection mixture containing 2 nM Streptavidin-D2 and 150 nM of 6E10 anti-amyloid beta antibody (Covance, Emoryville, Calif.) labeled with Europium cryptate in detection buffer (200 mM Tris pH 8.0, 20 mM EDTA, 0.1% BSA, and 0.8M KF). The final reaction mixture was incubated at ambient temperature for 60 minutes and the TR-FRET signal was measured using an EnVision Multilabel Plate Reader™ (Perkin-Elmer) at an excitation wavelength of 320 nm and emission wavelengths of 615 and 665 nm. Reactions lacking BACE1 enzyme (0 BACE) and reactions containing lacking anti-BACE1 antibodies (PBS (100% BACE1 Activity) were used as controls.
Fab proteins of 6 clones were purified and subjected for HTRF enzyme activity assay, as described above.
The affinity matured YW412.8.31 anti-BACE1 antibody was tested in a HTRF assay as described in Example 1. […] Additionally, reactions using a short FRET peptide (Rh-[…]-quencher (SEQ ID NO:54), Invitrogen) were also performed identically to the HTRF reactions. The resulting fluorogenic products from the control reactions were measured as above, but at an excitation wavelength of 545 nm and an emission wavelength of 585 nm. Obtained data were analyzed using GraphPad Prism 5™ (LaJolla, Calif.).

BACE2 = molecular target: T1, BACE2 (Homo sapiens, UniProt Q9Y5Z0); assay: SPR analysis, BACE2; format: binding
T1 sequence (Q9Y5Z0 63-518): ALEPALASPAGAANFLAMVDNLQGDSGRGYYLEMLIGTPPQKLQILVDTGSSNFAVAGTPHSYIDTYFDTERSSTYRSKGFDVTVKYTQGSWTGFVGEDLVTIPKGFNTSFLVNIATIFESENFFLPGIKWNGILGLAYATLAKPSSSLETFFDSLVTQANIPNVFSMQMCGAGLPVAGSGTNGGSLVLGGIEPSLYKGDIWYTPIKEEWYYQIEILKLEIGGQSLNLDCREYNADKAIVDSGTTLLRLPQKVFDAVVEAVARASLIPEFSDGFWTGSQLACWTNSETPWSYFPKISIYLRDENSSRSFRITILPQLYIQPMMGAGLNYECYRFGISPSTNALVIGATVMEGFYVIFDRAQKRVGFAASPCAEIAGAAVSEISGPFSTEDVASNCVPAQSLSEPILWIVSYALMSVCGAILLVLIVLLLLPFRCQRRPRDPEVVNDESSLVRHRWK
Protocol: Further characterization of this antibody was performed to better understand its function.

human BACE2 = molecular target: T2, human BACE2 (Homo sapiens, UniProt Q9Y5Z0); assay: MCE assay, BACE2; format: biochemical
T2 construct: the extracellular domain of human BACE2 enzyme (5 nM)
T2 sequence (Q9Y5Z0 63-473 limits assumed): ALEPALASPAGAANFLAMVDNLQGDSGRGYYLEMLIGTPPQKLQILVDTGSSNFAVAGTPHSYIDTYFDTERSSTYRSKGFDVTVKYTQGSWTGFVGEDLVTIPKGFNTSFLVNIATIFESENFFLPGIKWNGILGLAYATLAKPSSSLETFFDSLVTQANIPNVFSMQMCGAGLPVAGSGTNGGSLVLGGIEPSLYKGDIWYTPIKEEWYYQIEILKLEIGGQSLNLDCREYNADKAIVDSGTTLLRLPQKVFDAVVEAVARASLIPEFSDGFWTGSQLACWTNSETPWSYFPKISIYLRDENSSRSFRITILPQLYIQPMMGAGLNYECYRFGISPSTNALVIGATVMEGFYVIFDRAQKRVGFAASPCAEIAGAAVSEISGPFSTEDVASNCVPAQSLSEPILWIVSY
Protocol: The MCE assay reactions were carried out in a final volume of 20 μL per well in a 384-well microplate. A standard enzymatic reaction, initiated by the addition of 10 μL 2× substrate to 5 μL of 4× enzyme and […] of 4× compound, containing 12 nM human BACE1 extracellular domain, […] amyloid precursor protein beta secretase active site peptide (FAM-[…]-CONH2 (SEQ ID NO:55)), 50 mM NaOAc pH 4.4 and 0.1% CHAPS. The same reaction conditions were used for the extracellular domain of human BACE2 enzyme (5 nM) and the extracellular domain of Cathepsin D (6 nM, Calbiochem®). After incubation for 60 minutes at ambient temperature, the product and substrate in each reaction were separated using a 12-sipper microfluidic chip analyzed on an LC3000® (both, Caliper Life Sciences). The separation of product and substrate was optimized by choosing voltages and pressure using the manufacturer's optimization software. The separate buffer contained 100 mM HEPES pH 7.2, 0.015% Brij-35, 0.1% coating reagent #3, 10 mM EDTA and 5% DMSO. The separation conditions used a downstream voltage of −500V, an upstream voltage of −2250V and a screening pressure of −1.2 psi. The product and substrate fluorescence was excited at a wavelength of 488 nm and detected at a wavelength of 530 nm. Substrate conversion was calculated from the electropherogram using HTS Well Analyzer software (Caliper Life Sciences).

Chain of BACE1 (P56817 22-457): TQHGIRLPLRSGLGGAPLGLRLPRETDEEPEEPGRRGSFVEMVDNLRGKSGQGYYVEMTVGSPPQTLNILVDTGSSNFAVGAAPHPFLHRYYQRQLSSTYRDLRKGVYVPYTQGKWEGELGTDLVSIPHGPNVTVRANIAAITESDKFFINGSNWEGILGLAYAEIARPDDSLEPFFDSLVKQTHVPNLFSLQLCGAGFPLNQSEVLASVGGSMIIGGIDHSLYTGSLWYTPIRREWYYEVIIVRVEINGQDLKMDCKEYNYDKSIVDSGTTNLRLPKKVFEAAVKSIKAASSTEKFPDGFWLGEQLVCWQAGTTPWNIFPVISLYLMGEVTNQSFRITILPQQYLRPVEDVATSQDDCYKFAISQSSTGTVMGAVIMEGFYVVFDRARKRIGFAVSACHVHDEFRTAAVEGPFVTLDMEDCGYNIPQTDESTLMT

B1: YW412.8.31: affinity matured form of YW412.8 anti-BACE1 antibody (antibody, V domains shown)
VH: EVQLVESGGGLVQPGGSLRLSCAASGFTFLGYGIHWVRQAPGKGLEWVGWISPAGGSTDYADSVKGRFTISADTSKNTAYLQMNSLRAEDTAVYYCARGPFSPWVMDYWGQGTLVTVSS
VL: DIQMTQSPSSLSASVGDRVTITCRASQDVSTAVAWYQQKPGKAPKLLIYSASFLYSGVPSRFSGSGSGTDFTLTISSLQPEDFATYYCQQFPTYLPTFGQGTKVEIK
For B1, the “reduction of Aβ1-40 and Aβ1-42 in the brain” value [1] was 15-22%, the “reduction of cortical Aβ1-40 and Aβ1-42 (trend)” value [1] was 12-18% and the “reduction of hippocampal Aβ1-40 and Aβ1-42” value [1] was 13-22%. The “reduction in Aβ40 production” value [2] was roughly 50%, the maximal inhibition (BACE1) was 77% and the “binding to BACE2” value (BACE2) was “does not bind”. The “inhibition of human BACE2” value (human BACE2) was “did not inhibit”.
